Data from publication PMC5181682 (Nucleic Acids Research, 2016).

B1: TIP (Thermococcales inhibitor of PCNA), full length (natural protein, T. kodakarensis, UniProt Q5JH72 1-64, looked up)
chain: MDRKLDEFIGDATPKKVSKEKPVRRKKRLKPTSLDSFLPEEHINYFRDLRIGSKKIRNAKIEEL
B2: PCNA:TIP peptide complex (1:1) (complex)
chain: MPFEVVFDGAKEFADLIATASNLIDEAAFKFTEEGISMRAMDPSRVVLIDLNLPESIFSKYEVEEPETIGINMDQFKKILKRGKAKDTLILRKGDENFLEITFEGTAKRTFRLPLIDVEELELELPELPFTAKVVLLGEVLKEGIKDASLVSDAIKFIAKENEFTMKAEGETNEVEIRLTLEDEGLLDLEVEEETKSAYGIRYLSDMVKGIGKADEVILRFGNEMPLQMEYMIRDEGRLTFLLAPRVEE
peptide: RLKPTSLDSFLPEEHINYFRDLRIGSKKIRNAKIEEL
B3: Proliferating cell nuclear antigen (PCNA1) of Thermococcus kodakarensis (natural protein)
chain: B2 chain

Tests used:
[1] = target: B3; experiment: crystal structure; PCNA with full length TIP, ratio about 1:1.2, hanging drop; well 1.2 M ammonium sulfate, 50 mM sodium citrate pH 4.0, 10% glycerol; 2.8 Å; conditions: both partners purified
[2] = target: B3; experiment: crystal structure; PCNA with FEN-1 peptide, ratio about 1:5, sitting drop; well 2.8 M ammonium sulfate, 100 mM citric acid pH 5.3, 10% PEG 4000; 2.0 Å; conditions: both partners purified
[3] = target: the molecule itself; experiment: SAXS; PCNA:TIP peptide complex at 6.4, 4.8, 4.1 and 2.1 mg/ml, purified by SEC, 50 mM Tris-HCl pH 7.3, 200 mM NaCl, room temperature; fit to a two-member ensemble (1:1 Model A and 2:2 Model C); 2:2 form to 1:1 complexes
[4] = target: the molecule itself; experiment: SAXS; free PCNA in 50 mM Tris-HCl pH 7.3, 200 mM NaCl, room temperature; fit to the crystal structure PDB 3LX1
[5] = target: B3; experiment: crystal structure; PCNA with TIP peptide (residues 28-64); same space group as PCNA:TIP; 3.4 Å; conditions: both partners purified

B1: binds [1].

KQRTLESWFGR (peptide, UniProt Q5JGN0 330-340, looked up) [flap endonuclease 1 (FEN-1) peptide (residues 330-340)]: binds [2].

In the case of B2, the Kd [3] is reported as roughly 100 µM and the “stoichiometry N” value [3] is reported as 2.

For B3, the “stoichiometry N” value [4] was 3.

RLKPTSLDSFLPEEHINYFRDLRIGSKKIRNAKIEEL (peptide, UniProt Q5JH72 28-64, looked up) [TIP peptide (residues 28-64)]: binds [5].
